The chains are these.
B1: NKp30 F85A/L86A mutant, extracellular portion (domain or fragment, human, UniProt O14931 19-135, looked up)
chain: LWVSQPPEIRTLEGSSAFLPCSFNASQGRLAIGSVTWFRDEVVPGKEVRNGTPEFRGRLAPLASSRAAHDHQAELHIRDVRGHDASIYVCRVEVLGLGVGTGNGTRLVVEKEHPQLG
B2: NKp30 S52R mutant, extracellular portion (domain or fragment, human, UniProt O14931 19-135, looked up)
chain: LWVSQPPEIRTLEGSSAFLPCSFNASQGRLAIGRVTWFRDEVVPGKEVRNGTPEFRGRLAPLASSRFLHDHQAELHIRDVRGHDASIYVCRVEVLGLGVGTGNGTRLVVEKEHPQLG
B3: NKp30 I50A/S52A mutant, extracellular portion (domain or fragment, human, UniProt O14931 19-135, looked up)
chain: LWVSQPPEIRTLEGSSAFLPCSFNASQGRLAAGAVTWFRDEVVPGKEVRNGTPEFRGRLAPLASSRFLHDHQAELHIRDVRGHDASIYVCRVEVLGLGVGTGNGTRLVVEKEHPQLG

Experimental findings from paper PMC3135353 (The Journal of Experimental Medicine, 2011) are described below.

The assay concerns the target T1, B7-H6, extracellular portion (residues Asp25-Ser262) (human, UniProt Q68D85 25-262, N-linked glycans seen at Asn43, Asn57 and Asn208).
T1 sequence (looked up): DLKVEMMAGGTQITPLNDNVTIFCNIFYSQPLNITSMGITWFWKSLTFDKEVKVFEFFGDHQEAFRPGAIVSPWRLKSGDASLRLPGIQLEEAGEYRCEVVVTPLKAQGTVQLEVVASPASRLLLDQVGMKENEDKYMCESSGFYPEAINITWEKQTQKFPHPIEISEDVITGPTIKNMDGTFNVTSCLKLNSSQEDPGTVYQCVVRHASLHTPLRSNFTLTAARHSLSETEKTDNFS
Put plainly: SPR.
Broadly, the Kd is the constant that tells how readily two partners part at equilibrium. A higher Kd goes with weaker binding. Turning to B1, the affinity, expressed as Kd, was 53 µM. This lies in the double-digit micromolar range.

Regarding B2, the Kd turned out to be 150 µM.

Consider B3, for which the Kd was 14 µM.
